# Data reported in patent publication US20230137032A1 (GlaxoSmithKline, published 2023).
# What was measured:
# [1] = molecular target: T1, recombinant cyno BCMA, in house material (cyno, UniProt A0A2K5UD97 4-52); experiment: ProteOn SPR run 2, antibody captured on Protein A, 25C
# T1 construct: also called Cyno in house BCMA
# [2] = molecular target: T2, recombinant human BCMA, in house material (human, UniProt Q02223 4-53, limits assumed); experiment: as above
# T2 construct: also called Human in house BCMA; In house human BCMA
# T2 sequence (Q02223 4-53 limits assumed): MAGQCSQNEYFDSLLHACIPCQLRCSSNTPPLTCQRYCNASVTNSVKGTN
# T1 sequence (A0A2K5UD97 entry or part of it): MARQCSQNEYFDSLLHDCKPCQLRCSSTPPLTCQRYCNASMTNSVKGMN
binder,measurement,setting,value
"S307118G03 H5L1 (antibody, human IgG1, kappa, V domains shown, Humanised, human IgG1 kappa; also called S307118G03 humanised H5L1) VH: QVQLVQSGAEVKKPGSSVKVSCKASGYTFTDYYMKWVRQAPGQGLEWIGEIYPNNGGITYNQKFKGRATLTVDKSTSTAYMELSSLRSEDTAVYYCANGYEFDYWGQGTLVTVSS VL: DIQMTQSPSSLSASVGDRVTITCSASQGISNYLNWYQQKPGKAPKLLIYYTSSLHSGVPSRFSGSGSGTDYTLTISSLQPEDFATYYCQQYSKLPWTFGQGTKLEIKR",binding result,[1],no binding
same,binding result,[2],no binding (tested: up to 256 nM)
